Target: Human ACLY, His-tagged, bacterially expressed and purified recombinant full length protein (UniProt P53396)
UniProt P53396, sequence (P53396 whole entry): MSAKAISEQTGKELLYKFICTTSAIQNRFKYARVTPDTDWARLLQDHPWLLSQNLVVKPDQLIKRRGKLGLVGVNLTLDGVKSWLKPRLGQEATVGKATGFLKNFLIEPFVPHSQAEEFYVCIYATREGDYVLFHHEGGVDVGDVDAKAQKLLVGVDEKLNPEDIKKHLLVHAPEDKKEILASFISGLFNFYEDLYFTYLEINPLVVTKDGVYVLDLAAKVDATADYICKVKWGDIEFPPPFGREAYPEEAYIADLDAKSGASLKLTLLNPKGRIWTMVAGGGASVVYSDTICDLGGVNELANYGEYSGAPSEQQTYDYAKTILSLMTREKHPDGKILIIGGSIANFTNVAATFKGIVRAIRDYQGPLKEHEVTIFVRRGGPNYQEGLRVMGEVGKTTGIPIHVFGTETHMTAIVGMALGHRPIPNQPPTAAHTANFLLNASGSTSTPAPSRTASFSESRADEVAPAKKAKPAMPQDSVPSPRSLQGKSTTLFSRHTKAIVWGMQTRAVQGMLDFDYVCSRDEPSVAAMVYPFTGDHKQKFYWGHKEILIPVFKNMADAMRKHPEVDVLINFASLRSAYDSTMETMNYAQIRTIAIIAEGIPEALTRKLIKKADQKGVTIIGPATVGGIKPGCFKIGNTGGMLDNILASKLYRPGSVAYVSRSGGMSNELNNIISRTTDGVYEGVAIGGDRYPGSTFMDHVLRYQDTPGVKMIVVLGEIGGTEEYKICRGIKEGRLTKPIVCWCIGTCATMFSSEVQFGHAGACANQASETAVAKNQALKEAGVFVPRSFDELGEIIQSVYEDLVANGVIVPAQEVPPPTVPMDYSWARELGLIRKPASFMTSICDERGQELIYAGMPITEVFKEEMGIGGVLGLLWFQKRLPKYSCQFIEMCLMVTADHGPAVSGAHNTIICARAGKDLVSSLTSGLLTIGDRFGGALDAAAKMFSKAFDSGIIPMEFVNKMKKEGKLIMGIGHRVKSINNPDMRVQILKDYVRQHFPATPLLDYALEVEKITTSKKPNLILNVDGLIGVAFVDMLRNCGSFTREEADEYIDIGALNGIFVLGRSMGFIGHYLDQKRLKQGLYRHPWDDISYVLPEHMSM

Active recombinant Src kinase
ACLY tyrosine residues phosphorylated (phosphoproteomics): The three ACLY tyrosine residues, Y682, Y252, Y227, were common for Lyn and Src
